Marks after values point to notes of the source that are not given here.
Target: T1, human uPAR (Homo sapiens, UniProt Q03405)
T1 construct: the mature protein (Leu^1-Gly^283) in bold; expressed in transfected cells; host or cells: HEK293 Flp-In T-REx (293)
Test: Real-time cell analyzer (xCELLigence) adhesion of 293/uPAR cells to VN
Type: cell-based
Conditions: cell index one hour after addition, highest antibody concentration 300 nM
Experimental: The electric impedance (termed cell index, CI) was recorded at regular intervals. […] The curves show the normalized cell index (NCI, Y-axis) as a function of time (X-axis). All cell indexes were normalized to the cell index measured immediately prior to antibody addition. To determine IC50 values (panel D), the NCI measured one hour after antibody addition were calculated in % of the NCI for untreated cells at the same time point (ΔNCI, Y-axis) and graphed in function of antibody concentration (X-axis).
96-well E-Plates were coated with VN (5 μg/ml) or FN (10 μg/ml) over night at 4° C. Plates were washed with PBS, added 0.1 ml serum free medium (DMEM, 0.1% bovine serum albumin, 25 mM Hepes pH 7.0) and transferred to real-time cell analyzer instrument (xCELLigence SP, Roche Corp.). […] The plate was returned to the instrument and the cell index recorded every three minutes. […] After another 1-1.5 hours of measurements the plate was removed again and wells added (20 μl) of antibody diluted to yield the indicated final concentrations. The plate was returned to the instrument and measurements conducted every 3 minutes for 2 hours and then every 15 minutes for 18 hours.

T1 sequence (Q03405 23-305): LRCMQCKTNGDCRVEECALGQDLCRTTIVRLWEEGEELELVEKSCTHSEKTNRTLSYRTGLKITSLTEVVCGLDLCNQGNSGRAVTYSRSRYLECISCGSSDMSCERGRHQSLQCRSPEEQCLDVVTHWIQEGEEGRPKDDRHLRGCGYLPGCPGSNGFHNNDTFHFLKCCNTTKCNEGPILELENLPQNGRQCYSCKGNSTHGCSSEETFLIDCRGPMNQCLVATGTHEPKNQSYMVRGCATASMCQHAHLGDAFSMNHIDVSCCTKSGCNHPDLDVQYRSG

% max inhibition (pro-uPA pre-treat.) (pro-uPA pre-treated 293/uPAR cells on VN): 100* %
% max inhibition (veh. pre-treat.) (vehicle pre-treated 293/uPAR cells on VN): 100* %
Substance: SMB: uPAR-binding N-terminal domain of VN, natural competitive antagonist of the uPAR/VN-interaction (DQESCKGRCTEGFNVDKKCQCDELCSYYQSCCTDYTAECKPQVT) [reference compound]
